Measurements reported in paper PMC3926959.

Target: T1, Ndc1-mTurquoise2 (S. cerevisiae), P32500
T1 chain: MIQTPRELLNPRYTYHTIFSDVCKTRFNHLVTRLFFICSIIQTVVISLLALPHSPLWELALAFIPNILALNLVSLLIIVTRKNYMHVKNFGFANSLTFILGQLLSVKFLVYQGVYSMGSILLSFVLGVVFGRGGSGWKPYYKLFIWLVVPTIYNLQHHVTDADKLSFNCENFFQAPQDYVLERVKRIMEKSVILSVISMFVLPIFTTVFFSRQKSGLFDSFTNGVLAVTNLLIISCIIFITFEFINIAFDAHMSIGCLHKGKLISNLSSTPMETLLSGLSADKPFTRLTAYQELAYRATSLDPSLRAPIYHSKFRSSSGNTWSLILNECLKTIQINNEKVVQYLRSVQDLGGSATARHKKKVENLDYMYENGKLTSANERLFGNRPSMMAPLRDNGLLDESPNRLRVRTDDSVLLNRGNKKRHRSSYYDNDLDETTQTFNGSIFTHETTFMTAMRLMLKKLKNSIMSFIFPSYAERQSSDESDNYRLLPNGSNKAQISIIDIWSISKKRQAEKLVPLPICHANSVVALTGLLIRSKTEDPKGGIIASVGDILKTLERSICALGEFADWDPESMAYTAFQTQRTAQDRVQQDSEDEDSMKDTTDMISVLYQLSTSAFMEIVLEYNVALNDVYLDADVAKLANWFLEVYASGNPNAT
Assay: line-scanning fluorescence cross-correlation spectroscopy
Details: remark: other sources report otherwise

percent of Ndc1-mTurquoise2 in a complex (FCCS): 2%
B1: Mps3-YFP, P47069 1-682 (natural protein)
chain: MNNSNEHRREEAGAANEQMPYNKAVKSAYADVLKDKMNREQEISLRAIKKGIYTDGGETDNYDMDKENDSAYEMFKKNLDFPLDQHNDDDDDDPYIEDNGQETDGYSDEDYTDEADKSFIEDSDSDSYDLESNSDFEENLESSGEAKKLKWRTYIFYGGLFFVFYFFGSFLMTTVKNNDLESHSSGATSSPGKSFSNLQKQVNHLYSELSKRDEKHSSELDKTVKIIVSQFEKNIKRLLPSNLVNFENDINSLTKQVETISTSMSELQRRNHKFTVENVTQWQDQLVKQLDTHLPQEIPVVINNSSSLLIIPELHNYLSALISDVIESPGIGTAGSAESRWEYDLNRYVKEILSNELQYIDKDYFIQEMNRRLQSNKQEIWEEITNRLETQQQQQQQQVQQDYSNVPQQYSSILMKRLIHQIYNSNQHQWEDDLDFATYVQGTKLLNHLTSPTWRQGSGVQPIELLTDSKQSSSTYWQCENEPGCSWAIRFKTPLYLTKISYMHGRFTNNLHIMNSAPRLISLYVKLSQTKEIKALQTLANQYGFGQHHKRDRNYIKIAKFEYRLTDSRIRQQMYLPPWFIQLKPLVRSIVFQVDENYGNKKFISLRKFIINGVTPQDLQIIENNEFPVLLGDTPEYGVTQNTDEGKRKVLLSKPPYASSSTSTKFHPASNVPSFGQDELDQ
